This note sets out measurements from IntAct's records for PubMed 29892012.

The chains are these.
B1: E3 ubiquitin-protein ligase LNX (Homo sapiens), Q8TBB1 (parent)
chain: MNQPESANDPEPLCAVCGQAHSLEENHFYSYPEEVDDDLICHICLQALLDPLDTPCGHTYCTLCLTNFLVEKDFCPMDRKPLVLQHCKKSSILVNKLLNKLLVTCPFREHCTQVLQRCDLEHHFQTSCKGASHYGLTKDRKRRSQDGCPDGCASLTATAPSPEVSAAATISLMTDEPGLDNPAYVSSAEDGQPAISPVDSGRSNRTRARPFERSTIRSRSFKKINRALSVLRRTKSGSAVANHADQGRENSENTTAPEVFPRLYHLIPDGEITSIKINRVDPSESLSIRLVGGSETPLVHIIIQHIYRDGVIARDGRLLPGDIILKVNGMDISNVPHNYAVRLLRQPCQVLWLTVMREQKFRSRNNGQAPDAYRPRDDSFHVILNKSSPEEQLGIKLVRKVDEPGVFIFNVLDGGVAYRHGQLEENDRVLAINGHDLRYGSPESAAHLIQASERRVHLVVSRQVRQRSPDIFQEAGWNSNGSWSPGPGERSNTPKPLHPTITCHEKVVNIQKDPGESLGMTVAGGASHREWDLPIYVISVEPGGVISRDGRIKTGDILLNVDGVELTEVSRSEAVALLKRTSSSIVLKALEVKEYEPQEDCSSPAALDSNHNMAPPSDWSPSWVMWLELPRCLYNCKDIVLRRNTAGSLGFCIVGGYEEYNGNKPFFIKSIVEGTPAYNDGRIRCGDILLAVNGRSTSGMIHACLARLLKELKGRITLTIVSWPGTFL

In one experiment the parent is B1. As to conditions: with srsf1_human SRSF1, Q07955.
srsf1_human SRSF1, Q07955, sequence (Q07955 whole entry): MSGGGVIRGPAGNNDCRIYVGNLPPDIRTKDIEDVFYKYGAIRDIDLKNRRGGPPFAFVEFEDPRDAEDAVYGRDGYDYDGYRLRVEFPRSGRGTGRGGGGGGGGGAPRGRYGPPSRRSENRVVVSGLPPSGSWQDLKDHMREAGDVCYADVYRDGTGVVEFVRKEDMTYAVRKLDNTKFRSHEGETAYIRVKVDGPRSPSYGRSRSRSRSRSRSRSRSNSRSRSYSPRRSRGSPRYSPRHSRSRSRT
For E295K, the “effect of a mutation on the interaction” value is “disrupting interaction strength”.

In another experiment the parent is B1. As to conditions: with pmgt1_human POMGNT1, Q8WZA1.
pmgt1_human POMGNT1, Q8WZA1, sequence (Q8WZA1 whole entry): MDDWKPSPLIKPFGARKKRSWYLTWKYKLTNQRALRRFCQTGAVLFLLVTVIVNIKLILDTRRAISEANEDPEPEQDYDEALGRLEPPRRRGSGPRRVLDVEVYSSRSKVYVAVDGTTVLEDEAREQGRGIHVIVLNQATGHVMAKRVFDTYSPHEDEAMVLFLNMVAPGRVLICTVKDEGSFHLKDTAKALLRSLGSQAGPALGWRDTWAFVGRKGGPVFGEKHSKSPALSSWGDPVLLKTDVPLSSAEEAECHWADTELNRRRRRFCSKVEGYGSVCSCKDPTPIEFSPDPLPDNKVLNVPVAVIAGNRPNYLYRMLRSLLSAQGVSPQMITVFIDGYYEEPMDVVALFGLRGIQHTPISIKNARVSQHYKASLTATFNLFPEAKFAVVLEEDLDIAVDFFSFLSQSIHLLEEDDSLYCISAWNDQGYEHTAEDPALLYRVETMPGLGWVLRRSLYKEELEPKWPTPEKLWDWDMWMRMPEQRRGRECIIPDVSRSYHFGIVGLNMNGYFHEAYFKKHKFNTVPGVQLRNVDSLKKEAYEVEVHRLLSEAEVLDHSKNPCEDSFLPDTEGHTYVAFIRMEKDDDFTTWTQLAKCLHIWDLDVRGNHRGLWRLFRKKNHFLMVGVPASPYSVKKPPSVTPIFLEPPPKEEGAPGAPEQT
For the variant E295K, the “effect of a mutation on the interaction” value is “disrupting interaction strength”.

The next experiment covers variants of B1. The conditions noted are these: with nagk_human NAGK.
As to E295K, the “effect of a mutation on the interaction” value is “disrupting interaction strength”.

The variants in the next experiment derive from B1. The conditions noted are these: with cep72_human CEP72, Q9P209.
cep72_human CEP72, Q9P209, sequence (Q9P209 whole entry): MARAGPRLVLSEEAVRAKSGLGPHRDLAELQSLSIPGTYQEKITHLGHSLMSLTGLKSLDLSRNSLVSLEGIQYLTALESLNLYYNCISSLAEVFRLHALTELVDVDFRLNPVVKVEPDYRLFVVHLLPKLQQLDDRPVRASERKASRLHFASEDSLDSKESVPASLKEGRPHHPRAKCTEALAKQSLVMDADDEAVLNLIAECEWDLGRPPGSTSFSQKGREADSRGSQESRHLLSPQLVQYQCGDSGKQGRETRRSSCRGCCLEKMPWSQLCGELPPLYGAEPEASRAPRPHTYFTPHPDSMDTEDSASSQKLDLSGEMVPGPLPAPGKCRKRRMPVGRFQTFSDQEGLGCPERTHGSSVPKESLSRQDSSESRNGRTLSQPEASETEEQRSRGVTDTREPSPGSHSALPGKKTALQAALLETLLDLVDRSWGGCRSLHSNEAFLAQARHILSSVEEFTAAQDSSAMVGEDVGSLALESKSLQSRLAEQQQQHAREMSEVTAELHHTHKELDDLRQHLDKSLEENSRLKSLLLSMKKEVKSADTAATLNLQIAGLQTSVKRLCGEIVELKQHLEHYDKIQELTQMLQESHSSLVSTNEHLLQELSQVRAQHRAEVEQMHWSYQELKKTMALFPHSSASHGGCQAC
For E295K, the “effect of a mutation on the interaction” value was “disrupting interaction strength”.

A further experiment covers variants of B1. The conditions noted are these: with mk09_human MAPK9, P45984.
For the variant E295K, the “effect of a mutation on the interaction” value was “with no effect”.

In the next experiment the parent is B1. As to conditions: with grb2_human GRB2, P62993.
grb2_human GRB2, P62993, sequence (P62993 whole entry, looked up): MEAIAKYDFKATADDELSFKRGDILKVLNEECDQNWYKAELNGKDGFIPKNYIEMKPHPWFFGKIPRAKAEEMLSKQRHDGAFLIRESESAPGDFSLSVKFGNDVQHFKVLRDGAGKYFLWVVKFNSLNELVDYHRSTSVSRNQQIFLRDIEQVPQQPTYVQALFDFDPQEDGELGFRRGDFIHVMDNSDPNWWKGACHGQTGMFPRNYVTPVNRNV
In the case of E295K, the “effect of a mutation on the interaction” value is reported as “disrupting interaction strength”.

Variants of B1 are the subject of a further experiment. The conditions noted are these: with ldoc1_human LDOC1, O95751.
ldoc1_human LDOC1, O95751, sequence (O95751 whole entry): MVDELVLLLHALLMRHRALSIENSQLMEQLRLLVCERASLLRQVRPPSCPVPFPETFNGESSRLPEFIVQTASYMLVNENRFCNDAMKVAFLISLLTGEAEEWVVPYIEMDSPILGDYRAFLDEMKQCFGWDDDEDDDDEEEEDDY
On to E295K, for which the “effect of a mutation on the interaction” value was “disrupting interaction strength”.

In a further experiment the parent is B1. The conditions noted are these: with kcd17_human KCTD17, Q8N5Z5.
As for E295K, the “effect of a mutation on the interaction” value was “disrupting interaction strength”.

The next experiment covers variants of B1. The conditions noted are these: with rpia_human RPIA.
E295K: the “effect of a mutation on the interaction” value is “disrupting interaction strength”.

In another experiment the parent is B1. As to conditions: with tera_human VCP.
Consider E295K, for which the “effect of a mutation on the interaction” value is recorded as “disrupting interaction strength”.

Variants of B1 are the subject of the next experiment. As to conditions: with KRT15, P19012.
KRT15, P19012, sequence (P19012 whole entry): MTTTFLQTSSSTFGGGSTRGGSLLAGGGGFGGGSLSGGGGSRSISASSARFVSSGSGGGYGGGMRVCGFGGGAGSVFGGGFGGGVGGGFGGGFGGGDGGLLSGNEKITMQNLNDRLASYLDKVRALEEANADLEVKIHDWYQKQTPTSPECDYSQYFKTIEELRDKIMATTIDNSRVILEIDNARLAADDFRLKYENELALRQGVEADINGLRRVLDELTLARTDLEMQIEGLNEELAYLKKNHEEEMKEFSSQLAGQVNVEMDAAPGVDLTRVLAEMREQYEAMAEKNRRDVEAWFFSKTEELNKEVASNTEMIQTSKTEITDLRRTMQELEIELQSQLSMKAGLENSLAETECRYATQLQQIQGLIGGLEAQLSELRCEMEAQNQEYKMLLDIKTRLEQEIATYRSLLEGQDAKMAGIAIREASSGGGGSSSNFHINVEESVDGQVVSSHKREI
For the variant E295K, the “effect of a mutation on the interaction” value is given as “disrupting interaction strength”.

The next experiment covers variants of B1. As to conditions: with rop1a_human ROPN1, Q9HAT0.
rop1a_human ROPN1, Q9HAT0, sequence (Q9HAT0 whole entry): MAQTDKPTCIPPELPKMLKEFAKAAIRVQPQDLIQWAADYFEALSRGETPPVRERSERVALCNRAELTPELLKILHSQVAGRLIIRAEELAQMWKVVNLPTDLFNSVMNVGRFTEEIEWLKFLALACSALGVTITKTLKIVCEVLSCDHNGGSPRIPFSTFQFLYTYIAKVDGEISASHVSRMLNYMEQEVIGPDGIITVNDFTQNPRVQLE
Consider E295K, for which the “effect of a mutation on the interaction” value is “disrupting interaction strength”.

Variants of B1 are the subject of another experiment. As to conditions: with nt2na_human NOTCH2NLA.
E295K: the “effect of a mutation on the interaction” value is on record as “disrupting interaction strength”.

In a further experiment the parent is B1. The conditions noted are these: with mt21a_human METTL21A.
For E295K, the “effect of a mutation on the interaction” value is on record as “disrupting interaction strength”.

The next experiment covers variants of B1. As to conditions: with zbt8a_human ZBTB8A.
For the variant E295K, the “effect of a mutation on the interaction” value was “disrupting interaction strength”.

Variants of B1 are the subject of another experiment. As to conditions: with dnpep_human DNPEP.
Turning to E295K, the “effect of a mutation on the interaction” value was “disrupting interaction strength”.

The variants in a further experiment derive from B1. The conditions noted are these: with clk2_human CLK2, P49760.
clk2_human CLK2, P49760, sequence (P49760 whole entry, looked up): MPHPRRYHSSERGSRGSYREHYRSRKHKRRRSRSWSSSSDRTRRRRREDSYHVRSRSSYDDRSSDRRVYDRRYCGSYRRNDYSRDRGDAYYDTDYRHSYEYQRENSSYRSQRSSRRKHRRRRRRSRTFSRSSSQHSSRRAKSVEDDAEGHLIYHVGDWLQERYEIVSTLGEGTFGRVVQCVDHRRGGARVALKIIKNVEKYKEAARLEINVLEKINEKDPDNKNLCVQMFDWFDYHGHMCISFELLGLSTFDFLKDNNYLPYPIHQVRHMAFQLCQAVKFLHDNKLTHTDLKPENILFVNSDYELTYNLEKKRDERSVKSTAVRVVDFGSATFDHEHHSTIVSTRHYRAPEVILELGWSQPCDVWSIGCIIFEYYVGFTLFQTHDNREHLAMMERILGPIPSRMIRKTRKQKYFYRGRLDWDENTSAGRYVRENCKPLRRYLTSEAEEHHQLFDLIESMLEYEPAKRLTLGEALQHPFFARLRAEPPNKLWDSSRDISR
On to E295K, for which the “effect of a mutation on the interaction” value is recorded as “disrupting interaction strength”.

The variants in another experiment derive from B1. As to conditions: with sat1_human SAT1, P21673.
sat1_human SAT1, P21673, sequence (P21673 whole entry): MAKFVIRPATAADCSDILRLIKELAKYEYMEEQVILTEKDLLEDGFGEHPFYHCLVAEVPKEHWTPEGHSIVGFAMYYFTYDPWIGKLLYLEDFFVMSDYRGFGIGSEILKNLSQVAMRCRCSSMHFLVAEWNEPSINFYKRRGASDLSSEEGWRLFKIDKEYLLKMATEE
As to E295K, the “effect of a mutation on the interaction” value was “disrupting interaction strength”.

In the next experiment the parent is B1. As to conditions: with neca2_human NECAB2, Q7Z6G3.
neca2_human NECAB2, Q7Z6G3, sequence (Q7Z6G3 whole entry): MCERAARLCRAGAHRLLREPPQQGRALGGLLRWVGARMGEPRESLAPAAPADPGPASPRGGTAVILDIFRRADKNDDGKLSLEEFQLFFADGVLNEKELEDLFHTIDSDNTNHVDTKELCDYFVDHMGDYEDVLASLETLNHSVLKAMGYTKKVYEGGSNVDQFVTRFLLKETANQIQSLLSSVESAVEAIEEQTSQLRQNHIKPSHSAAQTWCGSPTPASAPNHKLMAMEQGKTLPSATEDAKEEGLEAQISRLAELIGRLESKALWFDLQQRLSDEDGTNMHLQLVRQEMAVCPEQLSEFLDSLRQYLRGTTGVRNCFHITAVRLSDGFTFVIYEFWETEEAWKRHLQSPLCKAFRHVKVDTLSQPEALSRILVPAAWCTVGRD
E295K: the “effect of a mutation on the interaction” value is given as “disrupting interaction strength”.

In another experiment the parent is B1. As to conditions: with tri23_human TRIM23, P36406.
tri23_human TRIM23, P36406, sequence (P36406 whole entry): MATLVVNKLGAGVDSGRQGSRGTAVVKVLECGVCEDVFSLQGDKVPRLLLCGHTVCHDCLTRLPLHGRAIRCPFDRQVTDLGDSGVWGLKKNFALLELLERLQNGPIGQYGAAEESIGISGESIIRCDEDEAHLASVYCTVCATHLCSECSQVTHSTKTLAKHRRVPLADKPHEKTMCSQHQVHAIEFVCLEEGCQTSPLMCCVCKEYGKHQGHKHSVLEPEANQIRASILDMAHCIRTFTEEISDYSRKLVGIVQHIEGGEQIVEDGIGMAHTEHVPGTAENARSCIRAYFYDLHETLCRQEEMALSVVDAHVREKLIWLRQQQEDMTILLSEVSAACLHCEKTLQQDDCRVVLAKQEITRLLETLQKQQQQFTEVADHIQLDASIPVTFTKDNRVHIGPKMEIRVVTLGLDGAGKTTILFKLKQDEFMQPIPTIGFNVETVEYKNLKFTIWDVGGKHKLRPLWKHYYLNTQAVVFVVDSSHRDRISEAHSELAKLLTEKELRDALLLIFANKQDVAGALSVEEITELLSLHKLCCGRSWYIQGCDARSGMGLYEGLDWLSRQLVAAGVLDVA
For E295K, the “effect of a mutation on the interaction” value is “disrupting interaction strength”.

A further experiment covers variants of B1. The conditions noted are these: with mr1l1_human MRFAP1L1, Q96HT8.
mr1l1_human MRFAP1L1, Q96HT8, sequence (Q96HT8 whole entry): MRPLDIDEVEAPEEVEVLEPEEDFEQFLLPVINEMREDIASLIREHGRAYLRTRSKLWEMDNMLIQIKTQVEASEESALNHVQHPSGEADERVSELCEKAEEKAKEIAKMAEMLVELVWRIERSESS
On to E295K, for which the “effect of a mutation on the interaction” value was “disrupting interaction strength”.

Another experiment covers variants of B1. The conditions noted are these: with ndk7_human NME7, Q9Y5B8.
ndk7_human NME7, Q9Y5B8, sequence (Q9Y5B8 whole entry): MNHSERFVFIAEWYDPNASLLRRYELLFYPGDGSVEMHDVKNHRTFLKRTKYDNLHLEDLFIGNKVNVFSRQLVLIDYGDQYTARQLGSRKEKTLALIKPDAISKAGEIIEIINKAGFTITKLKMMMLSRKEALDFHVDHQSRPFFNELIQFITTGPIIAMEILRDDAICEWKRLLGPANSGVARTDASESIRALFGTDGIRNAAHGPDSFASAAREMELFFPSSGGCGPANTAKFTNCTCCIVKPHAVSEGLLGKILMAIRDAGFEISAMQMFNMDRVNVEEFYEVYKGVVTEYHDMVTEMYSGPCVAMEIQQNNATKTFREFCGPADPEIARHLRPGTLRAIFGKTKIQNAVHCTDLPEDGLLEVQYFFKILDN
With E295K, the “effect of a mutation on the interaction” value is reported as “disrupting interaction strength”.
